{
  "source": "patent US20240174741A1",
  "about": "(IMMUNOME, published 2024)",
  "binders": {"B1": {"name": "CD1-M3 (antibody, V domains shown)", "VH": "EVQLQQSGPELVKPGASVKIPCKASGYTFTDYNMDWVKQSHGKSLEWIGDINPNNGGTIYNQKFKGKATLTVDKSSSTAYMELRSLTSEDTAVYYCSRPYYGYFAYWGQGTLVTVSA", "VL": "DVVMTQSPLSLPVSLGDQASISCRSSQSLVHSHENTFLHWYLQKPGQSPKLLIYRVSNRFSGVPDRFSGSGSGTDFTLKISRVEAEDLGVYFCSQSTHVPLTFGAGTKLELK", "notes": "Mouse monoclonal from a hybridoma of a CD-1 mouse immunized with full length recombinant IL-38"}},
  "key": {"IL-1β": {"molecular_target": "IL-1β (human, UniProt P01584 1-269, limits assumed)", "assay": "CDI HuProt native protein microarray", "description": "(§1) To confirm specificity to IL-38, several lead candidate antibodies (CD1-M3, CD1-M8, NZB-M8) were analyzed in a High-Spec Cross-reactivity Assay using native HuProt arrays (CDI Laboratories). […] of antibody was incubated overnight in a cold room, washed, and probed with anti-human secondary antibodies. Fluorescence intensity (F635) as an indicator of binding was measured for each spot. CDI software quantified the specificity of the antibody to each spot based on a Z-score. Z-score is defined as [F635−(Average F635 on array)]/(Standard deviation of F635 on array). S-score is defined as the difference between the Z-score of a given protein and the Z-score of the next highest protein."}, "IL-36a": {"molecular_target": "T1, IL-36a (human, UniProt Q9UHA7 1-158, limits assumed)", "T1 sequence (looked up)": "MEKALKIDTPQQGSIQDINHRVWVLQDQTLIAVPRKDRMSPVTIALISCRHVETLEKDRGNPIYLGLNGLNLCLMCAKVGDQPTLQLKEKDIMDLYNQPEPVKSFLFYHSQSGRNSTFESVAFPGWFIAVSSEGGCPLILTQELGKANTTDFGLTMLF", "assay": "CDI HuProt native protein microarray", "description": "as §1"}, "IL-1Ra [1]": {"molecular_target": "T2, IL-1Ra (human, UniProt P18510 26-177, limits assumed)", "T2 sequence (P18510 26-177 limits assumed)": "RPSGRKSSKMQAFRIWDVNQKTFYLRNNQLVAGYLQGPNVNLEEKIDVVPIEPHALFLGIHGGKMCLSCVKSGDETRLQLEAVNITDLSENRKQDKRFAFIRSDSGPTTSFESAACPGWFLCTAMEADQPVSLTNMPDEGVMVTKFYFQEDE", "assay": "CDI HuProt native protein microarray", "description": "as §1"}, "IL-18": {"molecular_target": "T3, IL-18 (human, UniProt Q14116 1-193, limits assumed)", "T3 sequence (looked up)": "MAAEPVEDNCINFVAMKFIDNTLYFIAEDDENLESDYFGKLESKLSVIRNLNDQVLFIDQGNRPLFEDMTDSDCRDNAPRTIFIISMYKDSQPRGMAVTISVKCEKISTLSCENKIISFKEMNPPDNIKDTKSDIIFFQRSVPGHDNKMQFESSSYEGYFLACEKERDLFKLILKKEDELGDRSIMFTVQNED", "assay": "CDI HuProt native protein microarray", "description": "as §1"}, "IL-1α": {"molecular_target": "T4, IL-1α (human, UniProt P01583 1-271, limits assumed)", "T4 sequence (looked up)": "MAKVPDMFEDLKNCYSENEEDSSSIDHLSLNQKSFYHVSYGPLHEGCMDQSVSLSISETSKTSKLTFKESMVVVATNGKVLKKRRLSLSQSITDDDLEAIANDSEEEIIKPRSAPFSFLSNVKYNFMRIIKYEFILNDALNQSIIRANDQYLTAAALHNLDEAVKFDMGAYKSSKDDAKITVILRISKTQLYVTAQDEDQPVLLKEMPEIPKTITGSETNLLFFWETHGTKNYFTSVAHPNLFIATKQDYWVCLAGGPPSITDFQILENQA", "assay": "CDI HuProt native protein microarray", "description": "as §1"}, "IL-33": {"molecular_target": "T5, IL-33 (human, UniProt O95760 1-270, limits assumed)", "T5 sequence (looked up)": "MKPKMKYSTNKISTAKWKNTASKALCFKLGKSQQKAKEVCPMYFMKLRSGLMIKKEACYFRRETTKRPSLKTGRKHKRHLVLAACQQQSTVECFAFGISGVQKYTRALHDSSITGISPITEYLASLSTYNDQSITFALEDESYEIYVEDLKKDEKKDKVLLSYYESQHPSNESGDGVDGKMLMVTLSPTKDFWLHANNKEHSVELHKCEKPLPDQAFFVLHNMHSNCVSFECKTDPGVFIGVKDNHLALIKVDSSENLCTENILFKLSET", "assay": "CDI HuProt native protein microarray", "description": "as §1"}, "IL-36b": {"molecular_target": "T6, IL-36b (human, UniProt Q9NZH7 1-164, limits assumed)", "T6 sequence (looked up)": "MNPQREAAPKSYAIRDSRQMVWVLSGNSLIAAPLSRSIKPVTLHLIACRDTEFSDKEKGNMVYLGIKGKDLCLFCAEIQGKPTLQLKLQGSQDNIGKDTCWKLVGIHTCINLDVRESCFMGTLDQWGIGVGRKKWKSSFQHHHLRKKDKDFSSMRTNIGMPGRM", "assay": "CDI HuProt native protein microarray", "description": "as §1"}, "IL-37": {"molecular_target": "T7, IL-37 (human, UniProt Q9NZH6 1-218, limits assumed)", "T7 sequence (looked up)": "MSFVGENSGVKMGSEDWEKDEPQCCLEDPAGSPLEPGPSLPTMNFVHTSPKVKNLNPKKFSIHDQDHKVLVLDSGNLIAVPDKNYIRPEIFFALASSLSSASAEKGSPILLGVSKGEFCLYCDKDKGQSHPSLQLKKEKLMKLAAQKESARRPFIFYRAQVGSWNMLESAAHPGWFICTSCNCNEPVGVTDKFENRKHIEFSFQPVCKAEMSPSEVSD", "assay": "CDI HuProt native protein microarray", "description": "as §1"}, "IL-36g": {"molecular_target": "T8, IL-36g (human, UniProt Q9NZH8 1-169, limits assumed)", "T8 sequence (looked up)": "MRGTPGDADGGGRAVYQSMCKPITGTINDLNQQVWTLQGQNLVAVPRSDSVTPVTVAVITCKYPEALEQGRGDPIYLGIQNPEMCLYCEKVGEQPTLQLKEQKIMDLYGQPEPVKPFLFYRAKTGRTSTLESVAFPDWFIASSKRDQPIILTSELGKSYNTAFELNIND", "assay": "CDI HuProt native protein microarray", "description": "as §1"}, "IL-36Ra": {"molecular_target": "T9, IL-36Ra (human, UniProt Q9UBH0 1-155, limits assumed)", "T9 sequence (looked up)": "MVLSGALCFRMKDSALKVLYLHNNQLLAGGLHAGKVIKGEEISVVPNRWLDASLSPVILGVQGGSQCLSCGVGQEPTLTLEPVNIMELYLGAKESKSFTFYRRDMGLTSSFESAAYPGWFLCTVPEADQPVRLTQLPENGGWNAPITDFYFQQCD", "assay": "CDI HuProt native protein microarray", "description": "as §1"}, "IL-1Ra [2]": {"molecular_target": "T2, IL-1Ra", "assay": "CDI HuProt native protein microarray, IL-1 family members", "description": "as §1"}, "Hnrnph1": {"molecular_target": "T10, Hnrnph1", "T10 construct": "The lower-case gene symbol may mean a mouse clone", "T10 sequence (P31943 1-449, species assumed, looked up)": "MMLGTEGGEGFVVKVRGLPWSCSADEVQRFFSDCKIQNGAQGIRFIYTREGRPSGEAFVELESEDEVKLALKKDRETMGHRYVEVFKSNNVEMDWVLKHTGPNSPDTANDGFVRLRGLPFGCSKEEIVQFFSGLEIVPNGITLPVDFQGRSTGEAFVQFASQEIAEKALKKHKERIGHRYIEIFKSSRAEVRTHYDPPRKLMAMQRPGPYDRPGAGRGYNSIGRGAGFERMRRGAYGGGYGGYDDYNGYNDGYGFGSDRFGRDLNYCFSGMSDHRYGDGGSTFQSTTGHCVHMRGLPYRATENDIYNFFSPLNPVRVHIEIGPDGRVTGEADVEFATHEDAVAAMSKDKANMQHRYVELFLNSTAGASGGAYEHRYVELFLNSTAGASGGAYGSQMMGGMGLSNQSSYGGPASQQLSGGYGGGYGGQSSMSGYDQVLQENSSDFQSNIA", "assay": "CDI HuProt native protein microarray (High-Spec cross-reactivity assay)", "description": "as §1"}},
  "data": [
    {"binder": "B1", "values": [
      {"measurement": "binding result", "setting": "IL-1β", "value": "no binding"},
      {"measurement": "binding result", "setting": "IL-36a", "value": "no binding"},
      {"measurement": "binding result", "setting": "IL-1Ra [1]", "value": "no binding"},
      {"measurement": "binding result", "setting": "IL-18", "value": "no binding"},
      {"measurement": "binding result", "setting": "IL-1α", "value": "no binding"},
      {"measurement": "binding result", "setting": "IL-33", "value": "no binding"},
      {"measurement": "binding result", "setting": "IL-36b", "value": "no binding"},
      {"measurement": "binding result", "setting": "IL-37", "value": "no binding"},
      {"measurement": "binding result", "setting": "IL-36g", "value": "no binding"},
      {"measurement": "binding result", "setting": "IL-36Ra", "value": "no binding"},
      {"measurement": "Z-score", "setting": "IL-1Ra [2]", "value": -0.013},
      {"measurement": "F635", "setting": "Hnrnph1", "value": 4130},
      {"measurement": "S-Score", "setting": "Hnrnph1", "value": 5},
      {"measurement": "Z-score", "setting": "Hnrnph1", "value": 10.6}
    ]}
  ]
}
